Patent US20230348612A1 (BEIJING MABWORKS BIOTECH, published 2023)

T1: CD20 on Raji cells (CD20+ tumor cells) (UniProt P11836 1-297, limits assumed)
T1 construct: whole, on cells; also called CD20^+ Raji cells
T1 sequence (looked up): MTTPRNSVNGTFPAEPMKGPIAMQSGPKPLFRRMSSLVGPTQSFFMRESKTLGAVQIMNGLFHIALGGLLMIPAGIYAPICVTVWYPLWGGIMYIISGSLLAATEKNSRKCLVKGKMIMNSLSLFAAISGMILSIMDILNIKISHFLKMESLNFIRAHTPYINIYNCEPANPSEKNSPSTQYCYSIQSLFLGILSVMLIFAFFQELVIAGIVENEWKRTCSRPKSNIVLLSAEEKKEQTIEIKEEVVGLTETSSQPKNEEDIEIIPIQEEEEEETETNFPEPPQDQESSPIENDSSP

B1: MBS303 (anti-CD3/CD20 bispecific antibody, anti-CD20 scFv with wildtype light chain framework regions) (bispecific antibody, human IgG1, kappa, lambda, L234A L235A, N297A)
heavy 1: QVQLVQSGAEVKKPGSSVKVSCKASGYAFSYSWINWVRQAPGQGLEWMGRIFPGDGDTDYNGKFKGRVTITADKSTSTAYMELSSLRSEDTAVYYCARNVFDGYWLVYWGQGTLVTVSSASTKGPSVFPLAPSSKSTSGGTAALGCLVKDYFPEPVTVSWNSGALTSGVHTFPAVLQSSGLYSLSSVVTVPSSSLGTQTYICNVNHKPSNTKVDKKVEPKSCDKTHTCPPCPAPEAAGGPSVFLFPPKPKDTLMISRTPEVTCVVVDVSHEDPEVKFNWYVDGVEVHNAKTKPREEQYASTYRVVSVLTVLHQDWLNGKEYKCKVSNKALPAPIEKTISKAKGQPREPQVYTLPPSREEMTKNQVSLSCAVKGFYPSDIAVEWESNGQPENNYKTTPPVLDSDGSFFLVSKLTVDKSRWQQGNVFSCSVMHEALHNHYTQKSLSLSPGK
light 1: DIVMTQTPLSLPVTPGEPASISCRSSKSLLHSNGITYLYWYLQKPGQSPQLLIYQMSNLVSGVPDRFSGSGSGTDFTLKISRVEAEDVGVYYCAQNLELPYTFGGGTKVEIKRTVAAPSVFIFPPSDEQLKSGTASVVCLLNNFYPREAKVQWKVDNALQSGNSQESVTEQDSKDSTYSLSSTLTLSKADYEKHKVYACEVTHQGLSSPVTKSFNRGEC
heavy 2: QVQLVQSGAEVKKPGSSVKVSCKASGYAFSYSWINWVRQAPGQGLEWMGRIFPGDGDTDYNGKFKGRVTITADKSTSTAYMELSSLRSEDTAVYYCARNVFDGYWLVYWGQGTLVTVSSGGGGSGGGGSGGGGSDIVMTQTPLSLPVTPGEPASISCRSSKSLLHSNGITYLYWYLQKPGQSPQLLIYQMSNLVSGVPDRFSGSGSGTDFTLKISRVEAEDVGVYYCAQNLELPYTFGGGTKVEIKGGGGSGGGGSGGGGSEVQLLESGGGLVQPGGSLRLSCAASGFTFNTYAMNWVRQAPGKGLEWVARIRSKYNNYATYYAISVKDRFTISRDDSKNTLYLQMNSLRAEDTAMYYCVRHGNFGNSYLSYWAYWGQGTLVTVSSASTKGPSVFPLAPSSKSTSGGTAALGCLVKDYFPEPVTVSWNSGALTSGVHTFPAVLQSSGLYSLSSVVTVPSSSLGTQTYICNVNHKPSNTKVDKKVEPKSCDKTHTCPPCPAPEAAGGPSVFLFPPKPKDTLMISRTPEVTCVVVDVSHEDPEVKFNWYVDGVEVHNAKTKPREEQYASTYRVVSVLTVLHQDWLNGKEYKCKVSNKALPAPIEKTISKAKGQPREPQVYTLPPSREEMTKNQVSLWCLVKGFYPSDIAVEWESNGQPENNYKTTPPVLDSDGSFFLYSKLTVDKSRWQQGNVFSCSVMHEALHNHYTQKSLSLSPGK
light 2: QAVVTQEPSLTVSPGGTVTLTCQSSTGAVTTNNYANWVQQKPGHAFRGLIGGTKQRAPGVPARFSGSLLGGKAALTLSGVQPEDEAEYYCVLWYSNLWVFGGGTKLTVLGQPKAAPSVTLFPPSSEELQANKATLVCLISDFYPGAVTVAWKADSSPVKAGVETTTPSKQSNNKYAASSYLSLTPEQWKSHRSYSCQVTHEGSTVEKTVAPTECS
notes: Asymmetric; half antibodies MIL220 and MIL221-2 were expressed separately and assembled in vitro; also called MIL220 + MIL221-2
B2: MBS303m (with 83E, 100Q and 104-106LTA) (anti-CD3/CD20 bispecific antibody, anti-CD20 scFv with mutated light chain framework regions) (bispecific antibody, human IgG1, kappa, lambda, L234A L235A, N297A)
heavy 1: QVQLVQSGAEVKKPGSSVKVSCKASGYAFSYSWINWVRQAPGQGLEWMGRIFPGDGDTDYNGKFKGRVTITADKSTSTAYMELSSLRSEDTAVYYCARNVFDGYWLVYWGQGTLVTVSSASTKGPSVFPLAPSSKSTSGGTAALGCLVKDYFPEPVTVSWNSGALTSGVHTFPAVLQSSGLYSLSSVVTVPSSSLGTQTYICNVNHKPSNTKVDKKVEPKSCDKTHTCPPCPAPEAAGGPSVFLFPPKPKDTLMISRTPEVTCVVVDVSHEDPEVKFNWYVDGVEVHNAKTKPREEQYASTYRVVSVLTVLHQDWLNGKEYKCKVSNKALPAPIEKTISKAKGQPREPQVYTLPPSREEMTKNQVSLSCAVKGFYPSDIAVEWESNGQPENNYKTTPPVLDSDGSFFLVSKLTVDKSRWQQGNVFSCSVMHEALHNHYTQKSLSLSPGK
light 1: DIVMTQTPLSLPVTPGEPASISCRSSKSLLHSNGITYLYWYLQKPGQSPQLLIYQMSNLVSGVPDRFSGSGSGTDFTLKISRVEAEDVGVYYCAQNLELPYTFGGGTKVEIKRTVAAPSVFIFPPSDEQLKSGTASVVCLLNNFYPREAKVQWKVDNALQSGNSQESVTEQDSKDSTYSLSSTLTLSKADYEKHKVYACEVTHQGLSSPVTKSFNRGEC
heavy 2: QVQLVQSGAEVKKPGSSVKVSCKASGYAFSYSWINWVRQAPGQGLEWMGRIFPGDGDTDYNGKFKGRVTITADKSTSTAYMELSSLRSEDTAVYYCARNVFDGYWLVYWGQGTLVTVSSGGGGSGGGGSGGGGSGGGGSDIVMTQTPLSLPVTPGEPASISCRSSKSLLHSNGITYLYWYLQKPGQSPQLLIYQMSNLVSGVPDRFSGSGSGTDFTLKISRVEAEDEGVYYCAQNLELPYTFGQGTKLTAKGGGGSGGGGSGGGGSEVQLLESGGGLVQPGGSLRLSCAASGFTFNTYAMNWVRQAPGKGLEWVARIRSKYNNYATYYAISVKDRFTISRDDSKNTLYLQMNSLRAEDTAMYYCVRHGNFGNSYLSYWAYWGQGTLVTVSSASTKGPSVFPLAPSSKSTSGGTAALGCLVKDYFPEPVTVSWNSGALTSGVHTFPAVLQSSGLYSLSSVVTVPSSSLGTQTYICNVNHKPSNTKVDKKVEPKSCDKTHTCPPCPAPEAAGGPSVFLFPPKPKDTLMISRTPEVTCVVVDVSHEDPEVKFNWYVDGVEVHNAKTKPREEQYASTYRVVSVLTVLHQDWLNGKEYKCKVSNKALPAPIEKTISKAKGQPREPQVYTLPPSREEMTKNQVSLWCLVKGFYPSDIAVEWESNGQPENNYKTTPPVLDSDGSFFLYSKLTVDKSRWQQGNVFSCSVMHEALHNHYTQKSLSLSPGK
light 2: QAVVTQEPSLTVSPGGTVTLTCQSSTGAVTTNNYANWVQQKPGHAFRGLIGGTKQRAPGVPARFSGSLLGGKAALTLSGVQPEDEAEYYCVLWYSNLWVFGGGTKLTVLGQPKAAPSVTLFPPSSEELQANKATLVCLISDFYPGAVTVAWKADSSPVKAGVETTTPSKQSNNKYAASSYLSLTPEQWKSHRSYSCQVTHEGSTVEKTVAPTECS
notes: also called MIL220 + MIL221-3 (with 83E, 100Q, 104-106LTA)

Target: T1, CD20 on Raji cells (CD20+ tumor cells)
Test: FACS on Raji cells
Method: For the assay to test the MBS303 and MBS303m′ binding activity to Raji and Jurkat cells, 10⁵ Raji or Jurkat cells were plated on 96-well ELISA plates in 100 μ1 cell culture medium, and the ELISA plates were added with 50 μl serially diluted MBS303 and MBS303m, respectively. […] The ELISA plates were incubated 4° C. for 1 h, washed with PBS for three times, and subject to the BD flow cytometry system for FACS.

| Binder | binding result |
| --- | --- |
| B1 | binds |
| B2 | binds |
